Patent US10513545B2, “Fusion polypeptide in which anti-inflammatory polypeptide and ferritin monomer fragment are bound and pharmaceutical composition for preventing and treating inflammatory diseases, containing same as active ingredient” (KYUNGPOOK NATIONAL UNIVERSITY INDUSTRY-ACADEMIC COOPERATION …, priority 2015, dated 2019)

B1: TFG: fusion polypeptide: TRAP at N-terminus and PC-Gla at C-terminus of short ferritin monomer fragment, forms nanocage (apparently SEQ ID NO: 14) (protein)
chain: MGGTTFLLRNASGHMSSQIRQNYSTDVEAAVNSLVNLYLQASYTYLSLGFYFDRDDVALEGVSHFFRELAEEKREGYERLLKMQNQRGGRIFLQDIKKPAEDEWGKTPDAMKAAMALEKKLNQALLDLHALGSARTDPHLCDFLETHFLDEEVKLIKKMGDHLTNLHRLGGGSEFVDGGGSGTSANSFLEELRHSSLERECIEEICDFEEAKEIFQNVDDTLAFWSKHVLEHHHHHH
modifications: Fusion polypeptide (1)
B2: TFMG: as TFG with an MMP-2 cleavable linker (GPLGLAG) between ferritin fragment C-terminus and PC-Gla (apparently SEQ ID NO: 15) (protein)
chain: MGGTTFLLRNASGHMSSQIRQNYSTDVEAAVNSLVNLYLQASYTYLSLGFYFDRDDVALEGVSHFFRELAEEKREGYERLLKMQNQRGGRIFLQDIKKPAEDEWGKTPDAMKAAMALEKKLNQALLDLHALGSARTDPHLCDFLETHFLDEEVKLIKKMGDHLTNLHRLGGGSEFVDGGGSGTSGPLGLAGANSFLEELRHSSLERECIEEICDFEEAKEIFQNVDDTLAFWSKHVLEHHHHHH
modifications: Fusion polypeptide (2)

Assays:
[1] = tested on: VCAM-1, ICAM-1 and E-selectin on HUVECs; assay: expression of cell adhesion molecules (CAMs), whole-cell ELISA; format: cell-based, human; settings: LPS 100 ng/mL, FIG. 21A
Experimental: The expression of vascular cell adhesion molecule-1 (VCAM-1), intercellular adhesion molecule-1 (ICAM-1), and E-selectin on HUVECs were determined by a whole-cell ELISA as described. Briefly, confluent monolayers of HUVECs were treated with PC-Gla with TRAP, TFG, or TFMG for 6 h followed by LPS (100 ng/mL) for 16 h (VCAM-1 and ICAM-1) or 24 h (E-Selectin). After washing, mouse anti-human monoclonal VCAM-1 (100 μM; clone; 6C7.1), ICAM-1 (clone; P2A4) and E-selectin (clone; P3H3) antibodies (Millipore Corporation, 1:50 each) were added. After 1 h (37° C., 5% CO2), the cells were washed three times and then 1:2000 peroxidase-conjugated anti-mouse IgG antibody (100 μl; Sigma) was added for 1 h. The cells were washed again three times and developed using the o-phenylenediamine substrate (Sigma). Colorimetric analysis was performed by measuring absorbance at 490 nm. All measurements were performed in triplicate wells.

CLP-induced sepsis [2] = assay: survival in animal model of CLP-induced sepsis; format: in vivo, mouse; settings: for survival rate: in comparison with PC-Gla and TRAP co-administration group, FIG. 14; for overall effectiveness in sepsis treatment: taken together, in comparison with PC-Gla and TRAP co-administered group
Experimental: Male C57BL/6 mice (6-7 weeks of age, 18-20 g) were purchased from Orient Biotech (Seongnam, Gyeonggi Province, Republic of Korea) and used after 12 days of acclimation. Five mice per cage were housed under the conditions of a controlled temperature (20-25° C.), humidity (40-45%), and 12:12 h day/night cycle, while being fed with a normal rodent pellet and water ad libitum. All animals were treated according to the Guidelines for the Care and Use of Laboratory Animals issued by Kyungpook National University.
(§1) To induce inflammation, male mice were anesthetized with 2% isoflurane (JW Pharmaceutical, Republic of Korea) in oxygen delivered via a small rodent gas anesthesia machine (RC2, Vetequip, Pleasanton, Calif.), first in a breathing chamber and then via a facemask. They were allowed to breathe spontaneously during this procedure. The CLP-induced inflammation model was prepared as previously described. In brief, a 2-cm midline incision was made to expose the cecum and adjoining intestine. The cecum was then tightly ligated with a 3.0-silk suture at 5.0 mm from the cecal tip and punctured once using a 22-gauge needle for the induction of high grade inflammation. It was then squeezed gently to extrude a small amount of feces from the perforation site and returned to the peritoneal cavity. The laparotomy site was then sutured with 4.0-silk. In sham control animals, the cecum was exposed but not ligated or punctured and then returned to the abdominal cavity. This protocol was approved by the Animal Care Committee at Kyungpook National University prior to the conduct of the study (IRP No, KNU 2012-13).
All experiments were performed independently at least three times. Values are expressed as means±SEM. The statistical significance of differences between test groups was evaluated using SPSS for Windows, version 16.0 (SPSS, Chicago, Ill.). Statistical relevance was determined by one-way analysis of variance (ANOVA) and Tukey's post-test. P values less than 0.05 were considered to indicate a statistical significance. Survival analysis of CLP-induced sepsis was performed using Kaplan-Meier analysis.

CLP-induced sepsis [3] = assay: in vivo vascular permeability assay (Evans blue leakage); design: species or system mouse; settings: CLP-operated mice, intravenous, FIG. 20
Experimental: CLP-operated mice were injected with PC-Gla with TRAP, TFG, or TFMG intravenously. After 6 h, 1% Evans blue dye solution in normal saline was injected intravenously into each mouse. Thirty minutes later, the mice were sacrificed, and the peritoneal exudates were collected after being washed with normal saline (5 mL) and centrifuged at 200×g for 10 min. The absorbance of the supernatant was read at 650 nm. The vascular permeability was expressed in terms of dye (mg/mouse), which leaked into the peritoneal cavity according to a standard curve of Evans blue dye, as previously described.

CLP-induced sepsis [4] = assay: H&E staining and histopathological examination of lung in CLP-induced sepsis; format: in vivo, mouse; settings: for interstitial edema, infiltration of inflammatory cells and damage of pulmonary architecture: 200 nM intravenously 6 h after CLP, lungs 96 h after CLP, FIG. 15; for histopathologic score of pulmonary injury: in comparison with co-administration of PC-Gla and TRAP, FIG. 16
Experimental: as §1
Male C57BL/6 mice underwent CLP and were administered PC-Gla with TRAP, TFG, or TFMG (200 nM) intravenously at 6 h after CLP (n=5). Mice were euthanized 96 h after CLP. To analyze the phenotypic change of the lungs in mice, lung samples were removed from each mouse, washed tree times in PBS (pH 7.4) to remove remaining blood, fixed in 4% formaldehyde solution (Junsei, Tokyo, Japan) in PBS, pH 7.4 for 20 h at 4° C. After fixation, the samples were dehydrated through ethanol series, embedded in paraffin, sectioned into 4-μm sections, and placed on a slide. The slides were de-paraffinized in a 60° C. oven, rehydrated, and stained with hematoxylin (Sigma). To remove over-staining, the slides were quick dipped three times in 0.3% acid alcohol, and counterstained with eosin (Sigma). They are then washed in ethanol series and xylene, and then coverslipped. Light microscopic analysis of lung specimens was performed by blinded observation to evaluate pulmonary architecture, tissue edema, and infiltration of the inflammatory cells. The results were classified into four grades where Grade 1 represented normal histopathology; Grade 2 represented minimal neutrophil leukocyte infiltration; Grade 3 represented moderate neutrophil leukocyte infiltration, perivascular edema formation, and partial destruction of pulmonary architecture; and Grade 4 included dense neutrophil leukocyte infiltration, abscess formation, and complete destruction of pulmonary architecture.

| Molecule | LPS-mediated upregulation of CAMs [1] | survival rate (CLP-induced sepsis [2]) | overall effectiveness in sepsis treatment (CLP-induced sepsis [2]) | in vivo vascular permeability (CLP-induced sepsis [3]) | interstitial edema, infiltration of inflammatory cells and damage of pulmonary architecture (CLP-induced sepsis [4]) | histopathologic score of pulmonary injury (CLP-induced sepsis [4]) |
| --- | --- | --- | --- | --- | --- | --- |
| B1 | inhibited | significantly improved | significantly effective | alleviated | significantly alleviated | significantly superior effect |
| B2 | inhibited | significantly improved | more effective antiseptic than TFG | alleviated | significantly alleviated | significantly superior effect |
